Measured values as given in the supplement of paper PMC9170038.

Tested on: MS2 coat protein
Assay: apparent KD of MS2 coat protein; higher = weaker reporter binding
Details: Eterna round: R107
Procedure: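 RNA-MaP round R107: designed RNA switches with theophylline, tryptophan, arginine or FMN aptamers are transcribed on-chip within common flanks. They are titrated with SNAP-549-labelled MS2 coat protein in RNA-MaP buffer (100 mM Tris pH 7.5, 80 mM KCl, 4 mM MgCl2), without ligand or with the indicated ligand. Median apparent KD per design.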

[1] = input ligand: theophylline 20 uM
[2] = input ligand: theophylline 2 mM
[3] = input ligand: tryptophan 2.4 mM

AGAGCAUUGACGGCCGCCACUCAUGUCACAUGAGGAUCACCCAUGUGAUGGGUGAUCGCCCGGUUGAGGACCGGGUCAAUGCUCA [Omei Tryp SS B v2]
apparent KD of MS2 coat protein (input ligand: arginine 13.2 mM): 42.9 nM | apparent KD of MS2 coat protein [1]: 123 nM | apparent KD of MS2 coat protein [2]: 121 nM

AGAGUCAGACAAAAGUCUGGCUCAGCCGAAGGAGCGUCCGAAAGGACAGGUAGGUCGCGGUUCCAUGAGGAUCACCCAUGGUCCU [ArgAS 28 #OpenEnded #AlternativeMS2]
apparent KD of MS2 coat protein (input ligand: arginine 13.2 mM): 47.1 nM | apparent KD of MS2 coat protein (input ligand: none): 85 nM | apparent KD of MS2 coat protein [1]: 85.1 nM | apparent KD of MS2 coat protein [2]: 119 nM | apparent KD of MS2 coat protein [3]: 71.1 nM

AGAGUCAGACAAAAGUCUGGCUCAGCCGAAGGAGCGUCCGAAAGGACAGGUAGGUCGCGGUUGCAUGAGGAUCACCCAUGUUCCU [ArgAS 30 #OpenEnded #AlternativeMS2]
apparent KD of MS2 coat protein (input ligand: arginine 13.2 mM): 76.7 nM | apparent KD of MS2 coat protein (input ligand: none): 286 nM | apparent KD of MS2 coat protein [1]: 399 nM | apparent KD of MS2 coat protein [2]: 528 nM | apparent KD of MS2 coat protein [3]: 324 nM

AGAGUCUAGUCGGCCGCCACUCAUGUCCUAAGGACAUGAGGAUCACCCAUGUACCAAAGGUACAUGAGGACCGGGACUGGACUCA [Omei Tryp B SS C v1]
apparent KD of MS2 coat protein (input ligand: arginine 13.2 mM): 23.3 nM | apparent KD of MS2 coat protein (input ligand: none): 75.9 nM | apparent KD of MS2 coat protein [1]: 345 nM | apparent KD of MS2 coat protein [2]: 189 nM | apparent KD of MS2 coat protein [3]: 9.28 nM

AGAGUUAGACAAAAGUCUAGCUCACCAGAAGGAGCGUCCGAAAGGACAGGUAGGUCGCUGGUGCAUGAGGAUCACCCAUGUUCCU [ArgAS 20 #OpenEnded #AlternativeMS2]
apparent KD of MS2 coat protein (input ligand: arginine 13.2 mM): 26.9 nM | apparent KD of MS2 coat protein (input ligand: none): 115 nM | apparent KD of MS2 coat protein [1]: 211 nM | apparent KD of MS2 coat protein [2]: 313 nM | apparent KD of MS2 coat protein [3]: 150 nM

AGAUGACACAGUGGAUAGCAAGAUGCCGAUACCAGCUAGGAAACUAGCCCUUGGCAGCGGUACAUGAGGAUCACCCAUGUAUCCU [EThA NP+V+V2 #10]
apparent KD of MS2 coat protein (input ligand: arginine 13.2 mM): 12.4 nM | apparent KD of MS2 coat protein [1]: 15.1 nM | apparent KD of MS2 coat protein [3]: 13.4 nM

AGAUUACAUGUUUUAAUACGGAAAACUGAUACCAGUGUAUCUAUUCACCCUUGGCAGCAGCAACAUGAGGAUCACCCAUGUAUUA [JR_SSTheophyA_Sub016]
apparent KD of MS2 coat protein (input ligand: arginine 13.2 mM): 17.9 nM | apparent KD of MS2 coat protein [1]: 21.5 nM | apparent KD of MS2 coat protein [3]: 20 nM

AGAUUUAUUUUGACCGGGCUCAUUCCUGAAGGAGCGCAGAACAAUGCAGGUAGGUCGCAGGACAUGAGGAUCACCCAUGUCAAGC [Isaes]
apparent KD of MS2 coat protein (input ligand: arginine 13.2 mM): 14.2 nM | apparent KD of MS2 coat protein (input ligand: none): 20.7 nM | apparent KD of MS2 coat protein [1]: 18.3 nM | apparent KD of MS2 coat protein [2]: 19.9 nM | apparent KD of MS2 coat protein [3]: 18.8 nM

AGCACUGUGACGGCCGCCACUACAUAAAUAGGGUGGUCAGGUUCAUUACAUGAGGAUCACCCAUGUAGGACCGGGUCUCAGUGCA [Omei Trp Exc B A v7]
apparent KD of MS2 coat protein (input ligand: arginine 13.2 mM): 10 nM | apparent KD of MS2 coat protein [1]: 11.9 nM | apparent KD of MS2 coat protein [2]: 11 nM

AGCAGAUCCCAGCGAAAGCUGGGAUCUGCACGAGGACCGGUACGGCCGCCACUCGAGGACAUGAGGAUCACCCAUGUACCGGUCA [Glorfindel]
apparent KD of MS2 coat protein (input ligand: arginine 13.2 mM): 174 nM | apparent KD of MS2 coat protein (input ligand: none): 75.8 nM | apparent KD of MS2 coat protein [1]: 64.6 nM | apparent KD of MS2 coat protein [2]: 238 nM | apparent KD of MS2 coat protein [3]: 78.3 nM

AGCCCUGUACUAGAUACCAGCUACAUGAGGAUCACCCAUGUGCGUCAAGACUGACUGUGUAGCCCUUGGCAGCUACUCGCAUGUA [Exclusion - Theophylline B (Freestyle 3)]
apparent KD of MS2 coat protein (input ligand: arginine 13.2 mM): 13.7 nM | apparent KD of MS2 coat protein [1]: 23.1 nM | apparent KD of MS2 coat protein [3]: 14.9 nM

AGCGAUAUGCAUGAUACCAGCUACAUGAGGAUCACCCAUGUACGUCAGUAAUGACUGUGUAGCCCUUGGCAGCAUAGAGCAUGUA [Exclusion - Theophylline B (Freestyle 13)]
apparent KD of MS2 coat protein (input ligand: arginine 13.2 mM): 21.7 nM | apparent KD of MS2 coat protein [1]: 35.4 nM | apparent KD of MS2 coat protein [3]: 22.7 nM

AGCGGAACGGAAGGGUCCCGAAAUUGUGAUACCAGCCUUGAAUCCGGCCCUUGGCAGCACAUGAGGAUCACCCAUGUACUGCGGU [Arimaed]
apparent KD of MS2 coat protein (input ligand: arginine 13.2 mM): 11.4 nM | apparent KD of MS2 coat protein [1]: 20.7 nM | apparent KD of MS2 coat protein [3]: 13.1 nM

AGCUCAGAGAGUGAUACCAGACUACAUGAGGAUCACCCAUGUUACUUUUAAAUAUCAUGAGUCCCUUGGCAGCACAAGAAGAGCA [JR_ExcTheophyB_Sub016]
apparent KD of MS2 coat protein (input ligand: arginine 13.2 mM): 40.1 nM | apparent KD of MS2 coat protein [1]: 117 nM | apparent KD of MS2 coat protein [3]: 73.2 nM
